Source: PMC2770954
“And” between values parts separate entries of the source, which are not always exact repeats. Identical values can stand only once.

Experiments:
[1] = molecular target: p66^S3C/C38V/C280S labeled with QSY9 (HIV-1); experiment: FRET or BRET
[2] = molecular target: HIV-1 reverse transcriptase p51 p51 (Human immunodeficiency virus 1) (UniProt O93215); conditions: cited from earlier work
[3] = molecular target: HIV-1 reverse transcriptase p66 p66 (Human immunodeficiency virus 1) (UniProt O93215); conditions: cited from earlier work
[4] = molecular target: p66^S3C/C38V/C280S labeled with A488 (HIV-1); experiment: FRET or BRET
[5] = molecular target: HIV-1 reverse transcriptase p66 subunit (wild type) (HIV-1) (UniProt P03366); experiment: intrinsic tryptophan fluorescence kinetics
[6] = molecular target: HIV-1 reverse transcriptase p66 subunit (wild type) (HIV-1) (UniProt P03366); experiment: pre-steady-state activity assay

## p51^S3C/C38V/C280S labeled with A488 (natural protein)
[1]
  kobs (0.5 µM p66-QSY9, 0.5 µM p51-A488): 3.4e-06 s⁻¹
  koff: 1.9e-06 s⁻¹

## HIV-1 reverse transcriptase p66 p66 (from UniProt O93215)
[2]
  Kd: 310 nM
[3]
  Kd: 4200 nM

## p51^S3C/C38V/C280S labeled with QSY9 (natural protein)
[4]
  kobs (0.5 µM p66-A488, 0.5 µM p51-QSY9): 4.1e-06 s⁻¹
  kobs (0.5 µM p66-A488, 1.5 µM p51-QSY9): 4.8e-06 s⁻¹
  kobs (0.5 µM p66-A488, 2.0 µM p51-QSY9): 5.7e-06 s⁻¹
  kobs (0.5 µM p66-A488, 2.5 µM p51-QSY9): 7.1e-06 s⁻¹
  koff: 2.5e-06 s⁻¹
  kon: 1.6 M⁻¹ s⁻¹ and 1.8 M⁻¹ s⁻¹

## HIV-1 reverse transcriptase p51 subunit (wild type) (from UniProt P03366 600-1039) (natural protein)
[5]
  kdiss(1), slower major component of the two-exponential fit: 3.6e-06 s⁻¹
  kdiss(2), faster minor component of the two-exponential fit: 7.6e-05 s⁻¹
  kobs (0.5 µM p66, 0.5 µM p51): 5.4e-06 s⁻¹
[6]
  kobs (0.5 µM p66, 0.5 µM p51): 5.8e-06 s⁻¹
  kobs (0.5 µM p66, 2.5 µM p51): 7.8e-06 s⁻¹
